Experimental data reported in publication PMC5707411.
pKd: −log10 of the molar value.

Tests used:
[1] = molecular target: full-length RSV F (TM, residues 1–574) from strain 18537 with the DS-Cav1 prefusion-stabilizing mutations (respiratory syncytial virus subtype B, strain 18537) (UniProt P13843)
[2] = molecular target: prefusion-stabilized RSV F strain A2 (DS-Cav1); assay: SPR
[3] = molecular target: RSV F (+) FdTHS based on strain A2 (wild-type A2 RSV F ectodomain fused to a C-terminal trimerization motif) (respiratory syncytial virus subtype A, strain A2) (UniProt Q4KRW9); assay: crystal structure; 5C4 Fab co-expressed with RSV F (+) FdTHS in Expi293, complex purified (Ni-NTA, Strep-Tactin, thrombin, Superose 6); crystal from 0.2 M ammonium acetate, 0.1 M Bis-Tris pH 6.5, 25% PEG 3350; 3.4 Å
5C4 IgG [4] = assay: flow cytometry on cells; settings: full-length pre-F variants expressed in Expi293 cells; parent: est. 0.04; read off a plot
D25 IgG [5] = assay: flow cytometry on cells; settings: full-length pre-F variants expressed in Expi293 cells; parent: est. 0.14; read off a plot
5C4 IgG [6] = assay: flow cytometry on cells; settings: full-length pre-F variants expressed in Expi293 cells, read off a plot
D25 IgG [7] = assay: flow cytometry on cells; settings: full-length pre-F variants expressed in Expi293 cells, read off a plot

Substance	other: Relative binding (fractional binding relative to motavizumab) (5C4 IgG [4])	other: Relative binding (fractional binding relative to motavizumab) (D25 IgG [5])	other: Relative binding (fractional binding relative to motavizumab) (5C4 IgG [6]; parent: est. 0.75)	other: Relative binding (fractional binding relative to motavizumab) (D25 IgG [7]; parent: est. 0.69)	also measured
5C4 IgG (antibody)					EC50 of 5C4 neutralisation of mKate-RSV B strain 18537 wild-type virus on HEp-2 cells (viral F without DS-Cav1; antibody format not given) [1]: 9.15 µg/mL
D25 Fab					pKd [2]: > 10.11; koff [2]: < 1e-05 s⁻¹
RSV F (+) FdTHS based on strain A2 (wild-type A2 RSV F ectodomain fused to a C-terminal trimerization motif) (from UniProt Q4KRW9 1-391) (complex)					stoichiometry N [3]: 3
full-length RSV F (TM, residues 1–574) from strain 18537 with the DS-Cav1 prefusion-stabilizing mutations (from UniProt P13843) N200D	0.01	0.33			
full-length RSV F (TM, residues 1–574) from strain 18537 with the DS-Cav1 prefusion-stabilizing mutations (from UniProt P13843) N201A					other: Relative binding (fractional binding relative to motavizumab) (5C4 IgG [6]; parent: est. 0.005): 0.01; other: Relative binding (fractional binding relative to motavizumab) (D25 IgG [7]; parent: est. 0.14): 0.003
full-length RSV F (TM, residues 1–574) from strain 18537 with the DS-Cav1 prefusion-stabilizing mutations (from UniProt P13843) N201K	0.52	0.35			other: Relative binding (fractional binding relative to motavizumab) (5C4 IgG [6]; parent: est. 0.005): 0.44; other: Relative binding (fractional binding relative to motavizumab) (D25 IgG [7]; parent: est. 0.14): 0.35
full-length RSV F (TM, residues 1–574) from strain 18537 with the DS-Cav1 prefusion-stabilizing mutations (from UniProt P13843) N201R					other: Relative binding (fractional binding relative to motavizumab) (5C4 IgG [6]; parent: est. 0.005): 0.4; other: Relative binding (fractional binding relative to motavizumab) (D25 IgG [7]; parent: est. 0.14): 0.01
full-length RSV F (TM, residues 1–574) from strain 18537 with the DS-Cav1 prefusion-stabilizing mutations (from UniProt P13843) Q209K	0.19	0.58			
full-length RSV F (TM, residues 1–574) from strain 18537 with the DS-Cav1 prefusion-stabilizing mutations (from UniProt P13843) R202Q	0.01	0.37			
full-length RSV F (TM, residues 1–574) from strain 18537 with the DS-Cav1 prefusion-stabilizing mutations (from UniProt P13843) R213S	0.01	0.05			
full-length RSV F (TM, residues 1–574) from strain 18537 with the DS-Cav1 prefusion-stabilizing mutations (from UniProt P13843) T67N	0.15	0.53			
full-length RSV F (TM, residues 1–574) from strain 18537 with the DS-Cav1 prefusion-stabilizing mutations (from UniProt P13843) T74A	0.01	0.13			
full-length RSV F (TM, residues 1–574) from strain A2 with the DS-Cav1 prefusion-stabilizing mutations A74T			0.7	0.68	
full-length RSV F (TM, residues 1–574) from strain A2 with the DS-Cav1 prefusion-stabilizing mutations D200N			0.74	0.67	
full-length RSV F (TM, residues 1–574) from strain A2 with the DS-Cav1 prefusion-stabilizing mutations K201A					other: Relative binding (fractional binding relative to motavizumab) (5C4 IgG [6]; parent: est. 0.60): 0.02; other: Relative binding (fractional binding relative to motavizumab) (D25 IgG [7]; parent: est. 0.63): 0.64
full-length RSV F (TM, residues 1–574) from strain A2 with the DS-Cav1 prefusion-stabilizing mutations K201N			0.01	0.67	other: Relative binding (fractional binding relative to motavizumab) (5C4 IgG [6]; parent: est. 0.60): 0.012; other: Relative binding (fractional binding relative to motavizumab) (D25 IgG [7]; parent: est. 0.63): 0.64
full-length RSV F (TM, residues 1–574) from strain A2 with the DS-Cav1 prefusion-stabilizing mutations K201R					other: Relative binding (fractional binding relative to motavizumab) (5C4 IgG [6]; parent: est. 0.60): 0.61; other: Relative binding (fractional binding relative to motavizumab) (D25 IgG [7]; parent: est. 0.63): 0.64
full-length RSV F (TM, residues 1–574) from strain A2 with the DS-Cav1 prefusion-stabilizing mutations K209Q			0.61	0.54	
full-length RSV F (TM, residues 1–574) from strain A2 with the DS-Cav1 prefusion-stabilizing mutations N67T			0.6	0.61	
full-length RSV F (TM, residues 1–574) from strain A2 with the DS-Cav1 prefusion-stabilizing mutations Q202R			0.73	0.63	
full-length RSV F (TM, residues 1–574) from strain A2 with the DS-Cav1 prefusion-stabilizing mutations S213R			0.7	0.65	
